experiment: soluble on expression in E. coli; label from the status in PepcDB or PDB records

| Sequence | soluble on expression in E. coli |
| --- | --- |
| MFSPTFKSFLLLCLLVVNSWAQDPTTTATSTTTVPSTSTVTTTTVASTSSGSTTASTAAGGSTSTTAAGGSTASTAAGGSTSTTAAGGSTASTAAGGPTGSTAAGGSTASTAAGGSTASTAAGGSTASTVAGATSVVPSSPAPPTQPPVNNGCELGWKFFNRPSGGWCIKVFPGYFALKEHAENACQANGAATLTGLQNKAEALFIQCEYRNSPYFSCFSCFQNSVLGYCSSTVEVLYEYSSMLSEMSAPSGSVWIGIHRTPACNRKPLSAQCNKNTAFRWTDKSATGVDGFVFQRGQPDNGGRALNQNCALLLASSKPFIDAGGRYYAAQMEDVHCNATFVPGNMARKTSGYACGKPNKCQPGWKFFDRQSGGWCMKVFTGFHAAKVDAEAACKDVGATLSGLENKEEAIFIQNALLARISQASGSVWIGIQRKAECLGKGLTASGTPTTSFEWTDNSASGVGGMVFQAGQPDNGVTALNQNCALLLASSQPYIDARGRFYAATMEDVPCVANFVASNEARRTRGYVCGKPL | not soluble |
| MGSDKIHHHHHHMKALWILLSLTLWLFGAQNLELIKGQALFLELDKKDFLSLKNNDKNIPTFAHPKNQEKILAIFSLPYKNPPQNTKLIAFYKDKKEEIFIKTLEGNYKSEKLQIENKKIFPPKTIQERITKELKEANAIYSSYTPKALFNGAFNIPLNSFITSDFGKARTFNEKVASYHSGTDFRATTGTPIYAANSGVVKIAKDRYFAGNSVVIDHGFGIYSQYYHLSKIDVKIGQKIKKGELIGLSGATGRVSGPHLHFGILAGGKQVDPLDFVSKFNAIFQ | not soluble |
| MEKPVFYLDRVGEENTEAVIGAAAKRAAELGISHIVVASTSGKTALKMAEAVKGSNIKVIGVSHQYGQKEKGEWEVGEEYRKKLEELGAVITTQSHMFSGIERSITKKFGGYSRIEVISDTLRSLFGKGFKVAIEVAIMAADSGHIPVSDDTEIIAIGGTRWGADVALVLRPAHSNDFFSLQVREIIAMPRAKEDLEHHHHHH | soluble |
| NIVLTQSPKSMSVSVGERVTLSCKASENVDTYVFWFQQKPDQSPKLLLYGPSNRYTGVPDRFTGSGSTTDFTLTISSVQAEDLADYHCGQSYSYPYTFGGGTKLEIKRADAAPTVSIFPPSSEQLTSGGASVVCFLNNFYPKDINVKWKIDGSERQNGVLNSWTDQDSKDSTYSMSSTLTLTKDEYERHNSYTCEATHKTSTSPIVKSFNRNEC | soluble |
| VDYKTVRCHFGDVELTKWITITDGFTVFSGADYDPELKEIGGKDGSIFIGTKTKHKVIKVPFWVKYNTIEDYDALQLALSSKKPKMLMFSHIPGRYYLAVQVGDLNFKEIKMNGFGEITFIVADAYAHSTSYRRIKDYTQDGNKMTFKIKNNGTAPAFPIFRIKHLGENGYIGITNETGAFAVGSPEEEDGTIVHRNETLFDYSKAIAQALEGAPNVAKLNYMPPTFDSELKRMRLDNILGSGKGGEYVAIGARGTTPGYGEHVGTRTFIINPDSNGEYTLNEHLWWKQIFIATAQDQKGFLKLCVTGENDEFLYGIETYKRKNGFETEYNFFALDDDGVGWRFYKQFEFQADRNYHNPFSMNRSRAVEIFREEDKFRIYFNGAHHHVTVPSLKGKKSRKIHLAMGTCSDSSKYINYNLFEKVNFEKMGVSHYNNIVNKYQPGDEVIINFENDTVSTKDIDSIQDVVLGSKMISIPPGESELVVHLSSWVA | not soluble |
| MHTGCCTTKFDTEVLIIGNGPAGIALSSFLSGMHPFYDATHPHENVTVHEKLLANHDFSLIDQDLSWSSNLTELSQSGRPLSVLYDMLVRPGADMGSDAPGCIQWELNRRREIPHMVIGETKIGGSWNEYDAEMLTVSFSDWMDMPGFTMEQWLGGRPLVKRLPSVAIATYLKKYVERLRLRKKFHQYFVVNSIKKIGDVWVTSGKRSTDGRSFVIRSKQVVVACGKTSPRKLQLPNEEHCSSNIVYDVRALKERLDATKKTVIDEDENYDTPSTSTCSPVIVVGDGVSSVDCVRHCLERDIPVVHVIRRTLRELRNVMLSRLSPIHYSEYTDIYRMMIGRSVHKNYQRVLDASITSVSKIHVEITTGSNREIIEMPYSTVAVCIGRESHFSTVFENAHTFLDYQSEQDETLFAVGAYAGDHFVRFLVGGCLRVAQHITGAANNNNVTAKLLPIC | not soluble |
| MAPLFAVTLYEFKAERDDELDVSPGENLSICAHYDYEWFIAKPINRLGGPGLVPVSYVRIIDLMDPAKYASVDTYDREQVMKIIDEFKIPTVEQWKDQTRRYKESSIQIGNGHGQSQGLE | soluble |
| MGEAAVAEGPCPLLEDSFTRFSSQSNVYGLAGGADGRGELLAATLKGKVLGFRYQDLRQKIRPVAKELQFNYIPVDAEIVSIDTFNKSPPKRGLVVGITFIKDSGDKGSPFLNIYCDYEPGSEYNLDSIAESCLNLELQFTPFQLCHAEVQVGDQLETVFLLSGNDPAIHLYKENEGLHQFEEQPVENLFPELTNLTSSVLWLDVHNLPGSSQRLSALGCQSGYVRVAHVDQKNQEILQTWTIQQDGPISRVIVFSLSASEATQDSPQQEGYSLLVASMLEPAVVYWDLLNKGLDDQLLLPGSDQFDSVLCGLVTDVDLDGQLEVLVATYGQELLCYKYRGLPEDSRGFRLLWRRSFASPLLAMAHVDLTGDGLRELAVISLKGVHILQHSLIQASELVLTRLRHQVEQRKHQQGLGDRVGPRPVEHPAS | soluble |
| MGGDSVAIFTADMSVSGELRNDIELHLRRGIESDALRLVYLPEVDLRTGDIVGTEALVRWQHPTRGLLAPGCFIPVAESINLAGELDRWVLRRACNEFSEWQSAGLGHDALLRINVSAGQLVTGGFVDFVADTIGQHGLDASSVCLEITENVVVQDLHTARATLARLKEVGVHIAIDDFGTGYSAISLLQTLPIDTLKIDKTFVRQLGTNTSDLVIVRGIMTLAEGFQLDVVAEGVETEAAARILLDQRCYRAQGFLFSRPVPGEAMRHMLSARRLPPTCILEHHHHHH | not soluble |
| MSRKNISLTESLEEYIFRNSVREPDSFLKLRKETGTLAQANMQISPEEGQFLNILTKISGAKRIIEIGTFTGYSSLCFASALPEDGKILCCDVSEEWTNVARKYWKENGLENKIFLKLGSALETLQVLIDSKSAPSWASDFAFGPSSIDLFFLDADKENYPNYYPLILKLLKPGGLLIADNVLWDGSVADLSHQEPSTVGIRKFNELVYNDSLVDVSLVPIADGVSLVRKRLEHHHHHH | soluble |
| GSHMGHIIDISKWNGDINWSIAKQHIDFIIARVQDGSNYVDPLYKGYVQAMKQHGIPFGNYAFCRFVSIADAKKEAQDFWNRGDKSATVWVADVEVKTMNDMRAGTQAFIDELYRLGAKKVGLYVGHHMYTPFGMANVKSDFVWIPRYGGNKPAYPCDIWQYTETGNVPGIGKCDLNSLIGNKSLSWFTESA | soluble |
| MAHHHHHHMCAKESCRAVNQGIRKECESCGTEKPQLLGWKCEGCSTINHAGVRKCKKCADASDKSKEFWMCAVCHENNRVDEIEDNSRCGFCGYDMAPHSVAEEEILRRATEKTVMLQQQQEHFDSVSYTEADEQFTNPLEGAEALDPSLRAIHPGSEAPITGRVLKLPAVAPFVAGGVPETRHSPLHQRRKVHPALQTVLEGATAPEGPPGFDWMCRDSSCGHINPGDEESCLKCGSHITPAEWEVPVMRVLEPPGTLALLLLQKPHSGLLDLQCVSGDDEHL | not soluble |
| MKTKDQIDNIVKETYRHIDFSGVILVKEKKGIVYEEVFGYANRNECINNTLQTRFGIASGCKIFTAIGICQLVENGVITFQTKLKECLSVNFPNFNEDITIHHLLTHSSGIPDYFDESIMDNFEDLWKQTPMYLLKSLKDFLPLFQNRDMMYAPGSKFHYNNAGFIILGLIIEEQTGLTFTEYIEKNIFNPIGMNHSGYFSLDRLPRQTALGYIKDEISQTWRTNAYSIPIKGGSDGGAFITASDMLKFWEALFNYEIISQEYTKILLTPHIQVNNNQSYGYGIWIETRENKIFKYHVMGYDPGVSFRSAVYPDLGITLVIPSNKGAGAEKLMIEIEGSF | not soluble |
| MGSDKIHHHHHHMSDLSQRIAELSPEKLKLLVQRLNNKQGEILLRSPIVPQSRELNSFPLSSAQQRLWFIDQLQPGNSAYNISVPMRLGGWLNVAALEQSFKEVVKRHEVLRTTFTVVDGQPLQVIASSLSFTLPVVDLQKLPQNQREAEVLRLASEEAQQPFDLAQGPLLRATLLQLAAAEYALLLTMHHIIADGWAIGVLIREIADLYKAFSVGKPSPLSELSIQYVDFAVWQQQWLQGQLETQLAYWQQQLGSIPVVELPSDFPRSTTQTFSGAREALVLPKTLCDRLKTLNQRQGITLFMVLLAAFGALLNWYTDREDIVVGTDIANRNQAETKALIGFFANQLVLRTNLSKNPTFLELLERVREMTLEAYAHQDLPFDKLVDALNPKRELNRTPLFQVKLVLENTQTPSLELPGLTISSLKIENKTVQFDLLLELNETEQGLFGIWEYSTDLFERDSIVRLSKNFATLLAEVATHPEAKLSELKAVLNQVDKQQHLAKEQVYQNTIQQKLMNVKRRANSRQSTSGNTNHDKN | not soluble |
| MKFAFIAKHRSIWPVAWLCEALGVSRSGFHAWFNRSPSEHARHDEVLLERIKQSFQSSDRTYGARRVWHDVLEEGLSCGLHRIERLMRLNALRARPRRRGFPKDAGDRPVVMPNVLDRQFVADRPNQKWVADFTYIWTAEGWLYVAAVIDLFSRRVVGWSMNANMTAQLVTDALIMAIWRRGKPDALLHHSDQGSQYTSEQFQRLMGDHGITCSMSRSGNVWDNAAMESFFSSLKTERTARKVYRTRNDARADVFDYIERFYNPKRRHSTLGYLSPDDFETKVGLA | soluble |
| MPKAKGKTRRQKFGYSVNRKRLNRNARRKAARGIECSHIRHAWDHAKSVRQNLAEMGLAVDPNRAVPLRKRKVKAMEVDIEERPKELVRKPYVLNDLEAEASLPEKKGNTLSRDLIDYVRYMVENHGEDYKAMARDEKNYYQDTPKQIRSKINVYKRFYPAEWQDFLDSLQKRKMEVELEHHHHHH | not soluble |
| MGSDKIHHHHHHMHNKFYRGRFAVAPMLDWTTRHCRYFHRQFSQQALLYTEMITAPAILHAKYDLLEYDPAEQPVALQLGGSDPTQLANCAKLVQARGYTEINLNVGCPSDRVQNGMFGACLMANADLVADCIKAMQDVVDIPVTIKHRIGIDTLDSYAFLCDFIDKIQPYSQDFIVHARKAWLSGLSPKENREIPPLDYERVYQLKRDFPQLNISINGGIKTIDEIKQHLTKVDGVMVGREAYQNPALLGEIDQQLFDQNQPLITARIAVENMLPYIEQQLSKGVYLNHIVRHMLGAFQNCKGARQWRRHLSENACKQGAGIEVVEQALRFVTE | not soluble |
| MGSDKIHHHHHHMITSVAVVGCGWFGLPLAKALLSQGLKVTGSKRSPQEAEALSADGITGFALDLETLESEDLSSQTREAITQGLACDAIVINIPPGLRRGDNGYLDRLKRLKALMGTHEYQRIIFISTSGVYPAGGDSSGSGCVESDAKVHSPASETLLAAEALFSGANSADGVSNNHSDGSESNNSCVVVRFAGLIGPKRHPGRFLAGREDVPGGNLAVNMVHLDDCIGAVTLLLKAEGALSPAYNLCAPLHPTKAEFYQKAATQQGLTPPSFIEGDLAEDKRVDGGLITRELNYQYKFTDPLAMLTHC | not soluble |
| MGKEITENIIDVEFKCNHFKMNGYIGNNNIYRSNKNLQHIYINKRFVKSKIIIDAITESYKSIIPIGKHAVCFLNIEVDPSCIDVNIHPNKLEIKFEKEQEVYIELRDFLKVKLIHSNLIGLEHHHHHH | not soluble |
